Data as given in patent US20190330347A1 (TAIZHOU HANZHONG BIOPHARMACEUTICS, published 2019).

How the values were obtained:
[1] = biological target: T1, PD1 on the surface of cell membrane (293T cell line stably transfected with PD1) (UniProt Q15116 25-288, limits assumed); assay: FACS competition on 293T-PD1 cells, competitor PDL1-mFc 20 nM
T1 construct: whole, on cells

[2] = biological target: T2, PD-1-his antigen (UniProt Q15116 25-167, limits assumed); assay: ELISA on coated PD-1-his
T2 construct: Human is implied, since cynomolgus and rat PD1 are called non-human antigens
Experimental: (§1) An ELISA plate was coated with PD-1-his antigen in a concentration of 0.25 μg/ml (100 μl per well) by incubation at 4° C. overnight.
(§2) The ELISA plate coated with the PD-1-his antigen was blocked with 1% BSA in the PBS buffer at 37° C. for 2 hours and washed with 1 xPBST buffer containing 1% Tween-20 for three times, with gently patting to dryness.
(§3) The absorbance of solution in each well was measured with the microplate reader at a wavelength of 450 nm.

[3] = biological target: T3, FcγRIIIa-Biotin (UniProt P08637 17-208, limits assumed, biotin (site not stated)); assay: Fortebio Octet BLI, FcγRIIIa-Biotin on SA sensor
T3 construct: also called CD16a
Excerpt: The data was collected with the Fortebio Data Acquisition 7.0 software and analyzed with the Fortebio Data Analysis 7.0 software.

[4] = biological target: serum complement C1q (UniProt P02745 23-245; P02746 28-253; P02747 29-245); assay: Fortebio Octet BLI, H8L2 on FAB2G sensor, C1q in solution
Excerpt: Serum complement C1q can bind to the Fc fragment of IgG antibody, thus involving in complement-dependent cytotoxicity (CDC). The safety and efficacy of a therapeutic monoclonal antibody will be affected by the binding ability of the monoclonal antibody to the serum complement C1q.
After binding for 120 seconds, the PBST buffer was applied to the FAB2G sensor for disassociation, which was kept for 180 seconds. The data was collected with the Fortebio Data Acquisition 7.0 software and analyzed with the Fortebio Data Analysis 7.0 software.

[5] = biological target: T1, PD1 on the surface of cell membrane …; assay: FACS on 293T cells stably transfected with PD1
Experimental: Step f) Each group was centrifuged at 4000 r/min at a low temperature for 5 minutes, followed by washing with the PBS buffer once and adding 200 μl PBS for suspending, thus obtaining a suspension for on-line detection.

[6] = biological target: T2, PD-1-his antigen; assay: ELISA on coated PD-1-his; antibody at 1:3 dilution of 2 µg/ml
Experimental: as §1, §2, §3

[7] = biological target: T4, PD-1-hIgGFc antigen (UniProt Q15116 25-167, limits assumed); assay: competitive ELISA on coated PD-1-hIgGFc, competitor PDL2-his tag
Experimental: A 96-well ELISA plate was coated with PD-1-hIgGFc antigen in a concentration of 1.0 μg/ml (100 μl per well) by incubation at 4° C. overnight.
After the 96-well ELISA plate was washed with the PBST buffer for five times and gently patted to dryness, HRP-conjugated monoclonal mouse anti-his tag as a secondary antibody in 1:750 dilution (50 μl per well) was added for incubation at 37° C. for 1 hour.

[8] = biological target: T4, PD-1-hIgGFc antigen; assay: competitive ELISA on coated PD-1-hIgGFc, competitor PDL1-mIgG2aFc
Experimental: A 96-well ELISA plate was coated with PD-1-hIgGFc antigen in a concentration of 0.5 μg/ml (50 μl per well) by incubation at 4° C. overnight.

[9] = biological target: T5, PD1-hFc of Cynomolgus monkey (Macaca fascicularis) (Cynomolgus monkey (Macaca fascicularis), UniProt B0LAJ3 25-170); assay: ELISA on coated cynomolgus PD1-hFc
T5 construct: also called PD1 of Cynomolgus monkey
T5 sequence (B0LAJ3 entry or part of it limits assumed, form in doubt): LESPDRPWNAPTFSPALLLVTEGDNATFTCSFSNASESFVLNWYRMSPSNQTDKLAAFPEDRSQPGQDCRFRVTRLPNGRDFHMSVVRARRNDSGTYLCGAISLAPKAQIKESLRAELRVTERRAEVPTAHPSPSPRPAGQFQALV

T1 sequence (Q15116 25-288 limits assumed): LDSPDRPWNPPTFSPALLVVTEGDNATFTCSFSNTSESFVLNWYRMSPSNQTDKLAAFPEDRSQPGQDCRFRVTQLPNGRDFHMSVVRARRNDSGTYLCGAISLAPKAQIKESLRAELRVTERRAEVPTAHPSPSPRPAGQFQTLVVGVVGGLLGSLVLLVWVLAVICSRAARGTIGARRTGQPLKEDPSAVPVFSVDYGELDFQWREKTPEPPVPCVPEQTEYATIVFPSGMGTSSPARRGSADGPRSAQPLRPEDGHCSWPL
T2 sequence (Q15116 25-167 limits assumed): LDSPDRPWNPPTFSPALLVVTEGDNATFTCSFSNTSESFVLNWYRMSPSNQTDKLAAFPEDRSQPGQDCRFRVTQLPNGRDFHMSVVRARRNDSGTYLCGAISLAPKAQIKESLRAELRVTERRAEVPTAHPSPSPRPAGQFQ
T4 sequence (Q15116 25-167 limits assumed): as above
Sequence of serum complement C1q (P02745 23-245 limits assumed, chain 1 of 3): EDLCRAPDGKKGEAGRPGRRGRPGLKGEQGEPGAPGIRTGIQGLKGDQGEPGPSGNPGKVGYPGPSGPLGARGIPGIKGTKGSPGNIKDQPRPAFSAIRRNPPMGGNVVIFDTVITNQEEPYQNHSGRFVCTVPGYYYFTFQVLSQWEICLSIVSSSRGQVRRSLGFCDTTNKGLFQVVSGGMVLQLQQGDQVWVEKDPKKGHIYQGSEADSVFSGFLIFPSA
Sequence of serum complement C1q (P02746 28-253 limits assumed, chain 2 of 3): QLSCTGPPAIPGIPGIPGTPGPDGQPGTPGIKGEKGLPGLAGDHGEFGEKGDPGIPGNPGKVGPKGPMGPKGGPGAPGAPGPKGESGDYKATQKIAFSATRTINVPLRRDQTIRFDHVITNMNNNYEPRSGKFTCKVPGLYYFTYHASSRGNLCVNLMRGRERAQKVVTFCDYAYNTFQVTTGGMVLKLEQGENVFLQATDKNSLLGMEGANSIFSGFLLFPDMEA
Sequence of serum complement C1q (P02747 29-245 limits assumed, chain 3 of 3): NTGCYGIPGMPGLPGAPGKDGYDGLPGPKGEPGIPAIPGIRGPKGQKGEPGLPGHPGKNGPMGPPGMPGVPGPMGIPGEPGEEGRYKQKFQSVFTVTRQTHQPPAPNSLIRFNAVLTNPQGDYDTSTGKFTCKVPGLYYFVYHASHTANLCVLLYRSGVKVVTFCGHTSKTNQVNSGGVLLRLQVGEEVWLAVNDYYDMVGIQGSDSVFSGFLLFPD
T3 sequence (P08637 17-208 limits assumed): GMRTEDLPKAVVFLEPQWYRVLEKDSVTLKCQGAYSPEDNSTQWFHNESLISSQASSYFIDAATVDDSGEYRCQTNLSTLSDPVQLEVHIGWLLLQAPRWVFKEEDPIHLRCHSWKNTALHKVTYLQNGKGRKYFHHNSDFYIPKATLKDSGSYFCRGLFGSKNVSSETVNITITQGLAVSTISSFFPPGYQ

B1: humanized H8L2 antibody (IgG-like antibody H8L2 against PD-1) (antibody)
heavy: EVQLVQSGGGLVQPGGSLKLSCAASGFTFSSYGMSWVRQAPGKGLDWVATISGGGRDTYYPDSVKGRFTISRDNSKNNLYLQMNSLRAEDTALYYCARQKGEAWFAYWGQGTLVTVSSASTKGPSVFPLAPCSRSTSESTAALGCLVKDYFPEPVTVSWNSGALTSGVHTFPAVLQSSGLYSLSSVVTVPSSSLGTKTYTCNVDHKPSNTKVDKRVESKYGPPCPPCPAPEFLGGPSVFLFPPKPKDTLMITRTPEVTCVVVDVSQEDPEVQFNWYVDGVEVHNAKTKPREEQFNSTYRVVSVLTPLHQDWLNGKEYKCKVSNKGLPSSIEKTISKAKGQPREPQVYTLPPSQEEMTKNQVSLTCLVKGFYPSDIAVEWESNGQPENNYKTTPPVLDSDGSFFLYSRLTVDKSRWQEGNVFSCSVMHEALHAHYTQKSLSLSLGK
light: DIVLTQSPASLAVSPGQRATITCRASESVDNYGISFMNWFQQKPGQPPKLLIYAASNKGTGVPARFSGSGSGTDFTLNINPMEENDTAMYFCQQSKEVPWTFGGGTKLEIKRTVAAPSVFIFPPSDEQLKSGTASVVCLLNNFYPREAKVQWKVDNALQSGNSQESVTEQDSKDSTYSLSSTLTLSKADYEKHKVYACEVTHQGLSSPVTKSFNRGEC
notes: Expressed in 293 cells and purified on protein A; also called 18A10 H8L2
Which EC50 [1] does the source give for B1 here?
Its EC50 is 19.6 nM.

And the EC50 [2]?
The EC50 was 0.04 nM.

Does B1 bind [3]?
Result: no binding (tested: 4000 nM)

Does B1 bind [4]?
Result: no binding (tested: 3.13 to 200 nM)

What about the EC50 [5] of the same binder?
The EC50 was 3.4 nM.

What about the “absorbance at 450 nm” value [6] of the same binder?
The value was 1.76.

What about the EC50 [7] of the same binder?
Its EC50 is 1.83 nM.

And the EC50 [8]?
The EC50 was 0.474 nM.

What about the EC50 [9] of the same binder?
The EC50 was 0.219 nM.
